Patent US20250163183

Molecular target: LP3, LP9, LP11, and LP18

B1: human activated protein C (APC) (protein)
chain: ANSFLEELRHSSLERECIEEICDFEEAKEIFQNVDDTLAFWSKHVDGDQCLVLPLEHPCASLCCGHGTCIDGIGSFSCDCRSGWEGRFCQREVSFLNCSLDNGGCTHYCLEEVGWRRCSCAPGYKLGDDLLQCHPAVKFPCGRPWKRMEKKRSHLLIDGKMTRRGDSPWQVVLLDSKKKLACGAVLIHPSWVLTAAHCMDESKKLLVRLGEYDLRRWEKWELDLDIKEVFVHPNYSKSTTDNDIALLHLAQPATLSQTIVPICLPDSGLAERELNQAGQETLVTGWGYHSSREKEAKRNRTFVLNFIKIPVVPHNECSEVMSNMVSENMLCAGILGDRQDACEGDSGGPMVASFHGTWFLVGLVSWGEGCGLLHNYGVYTKVSRYLDWIHGHIRDKEAPQKSWAP
  APC-mediated SEAP-PAR1 cleavage at 0.7-6 nM nanobody: reduced PAR1 cleavage down to 73-82% of controls
